From US20020151498A1

Tests used:
[1] = molecular target: LSR beta subunit (56 kDa) (rat) (UniProt Q9WU74); assay: ultracentrifugation assay, in vitro translated labeled subunit with LDL, with against without oleate
[2] = molecular target: LSR alpha subunit (68 kDa) (rat) (UniProt Q9WU74); assay: as above
LSR alpha subunit (68 kDa) (rat), sequence (Q9WU74 whole entry): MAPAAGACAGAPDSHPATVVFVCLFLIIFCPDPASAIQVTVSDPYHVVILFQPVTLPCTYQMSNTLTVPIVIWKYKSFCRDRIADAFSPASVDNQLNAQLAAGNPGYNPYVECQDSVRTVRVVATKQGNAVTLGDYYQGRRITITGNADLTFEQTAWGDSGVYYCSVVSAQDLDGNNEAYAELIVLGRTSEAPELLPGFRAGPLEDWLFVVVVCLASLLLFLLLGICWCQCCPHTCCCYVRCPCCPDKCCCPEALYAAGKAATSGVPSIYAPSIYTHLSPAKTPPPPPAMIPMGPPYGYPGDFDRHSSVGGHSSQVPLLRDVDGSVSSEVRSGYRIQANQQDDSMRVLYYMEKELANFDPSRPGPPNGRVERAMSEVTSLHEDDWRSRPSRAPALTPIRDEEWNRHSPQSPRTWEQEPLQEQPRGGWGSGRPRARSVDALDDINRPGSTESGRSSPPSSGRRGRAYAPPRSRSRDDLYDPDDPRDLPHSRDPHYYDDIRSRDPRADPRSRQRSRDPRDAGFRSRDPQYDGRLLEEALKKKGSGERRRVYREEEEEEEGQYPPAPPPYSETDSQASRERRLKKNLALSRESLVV

LSR beta subunit (56 kDa) (rat), sequence (Q9WU74 other isoform, or with tags, fused parts or gaps limits assumed): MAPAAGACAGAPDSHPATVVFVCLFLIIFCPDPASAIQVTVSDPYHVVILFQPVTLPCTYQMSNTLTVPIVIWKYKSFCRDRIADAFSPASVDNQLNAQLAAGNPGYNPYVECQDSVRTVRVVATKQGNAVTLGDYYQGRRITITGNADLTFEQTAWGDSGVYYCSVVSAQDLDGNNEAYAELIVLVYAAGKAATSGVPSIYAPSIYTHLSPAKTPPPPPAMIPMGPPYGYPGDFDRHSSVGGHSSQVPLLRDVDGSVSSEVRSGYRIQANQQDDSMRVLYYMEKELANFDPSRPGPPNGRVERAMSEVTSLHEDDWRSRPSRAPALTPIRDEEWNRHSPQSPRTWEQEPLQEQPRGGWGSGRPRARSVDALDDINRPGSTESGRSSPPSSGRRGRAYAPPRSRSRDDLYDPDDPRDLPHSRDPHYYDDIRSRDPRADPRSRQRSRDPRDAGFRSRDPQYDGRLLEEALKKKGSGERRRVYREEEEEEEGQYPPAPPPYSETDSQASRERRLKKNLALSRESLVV

fold enhancement of binding in the presence of oleate [1]: 5 fold | fold enhancement of binding in the presence of oleate [2]: 2 fold
Substance: LDL (low density lipoprotein) (ligand)
